# Data from patent US20260216242A1, “ALPP-SPECIFIC VARIANT ANTIGEN BINDING MOLECULES” (ALMAC DISCOVERY LIMITED, priority 2022, published 2026).
# Where a chain is given by its changes, count along the chain named. In names and notes the source's numbering stands.
# B1: D10 E06-hFc (S239/442C T366Y/Y407T), [G4S]1 linker, MC-vc-PAB-MMAE conjugate, #677 (Fc fusion, DAR 4)
# chain 1: QVQLVESGGGLVQPGGSLRLSCAASGSIFSVNTMGWYRQAPGKQRDLVAVATSGGTIHYADSVKGRFTISRDNAKNTVYLQMNSLKPEDTAVYYCNLVVPYGMIAGDHDYWGQGTKVTVSSGGGGSEPKSSDKTHTCPPCPAPELLGGPCVFLFPPKPKDTLMISRTPEVTCVVVDVSHEDPEVKFNWYVDGVEVHNAKTKPREEQYNSTYRVVSVLTVLHQDWLNGKEYKCKVSNKALPAPIEKTISKAKGQPREPQVYTLPPSRDELTKNQVSLYCLVKGFYPSDIAVEWESNGQPENNYKTTPPVLDSDGSFFLYSKLTVDKSRWQQGNVFSCSVMHEALHNHYTQKSLCLSPGK
# chain 2: QVHLVESGGGLVQAGGSLRLSCAASRRSFSEYAMGWFRQAPGKEREFVAAIGWSGVIEYADSVKGRFTISRDNAKDTVYLQMNSLKPEDTAVYYCAAGLGIRVVSQTPAYWGQGTQVTVSSGGGGSEPKSSDKTHTCPPCPAPELLGGPCVFLFPPKPKDTLMISRTPEVTCVVVDVSHEDPEVKFNWYVDGVEVHNAKTKPREEQYNSTYRVVSVLTVLHQDWLNGKEYKCKVSNKALPAPIEKTISKAKGQPREPQVYTLPPSRDELTKNQVSLTCLVKGFYPSDIAVEWESNGQPENNYKTTPPVLDSDGSFFLTSKLTVDKSRWQQGNVFSCSVMHEALHNHYTQKSLCLSPGK
# modifications: here or on the partner: MC-vc-PAB-MMAE on Cys of S239C and S442C (EU numbering)
# B2: D10 F05-hFc (S239/442C T366Y/Y407T), [G4S]1 linker, MC-vc-PAB-MMAE conjugate, #679 (Fc fusion, DAR 4)
# chain 1: B1 chain 1
# chain 2: QVQLVESGGGLVQAGGSLRLSCAASGRAFGDYNIGWFRQAPGKEREFVARRTWDGSSTRYDDSVKGRFTVSIDNAKNTAYLQMNSLKTEDTAVYYCAAGRYSRVRGWEYDYWGQGTQVTVSSGGGGSEPKSSDKTHTCPPCPAPELLGGPCVFLFPPKPKDTLMISRTPEVTCVVVDVSHEDPEVKFNWYVDGVEVHNAKTKPREEQYNSTYRVVSVLTVLHQDWLNGKEYKCKVSNKALPAPIEKTISKAKGQPREPQVYTLPPSRDELTKNQVSLTCLVKGFYPSDIAVEWESNGQPENNYKTTPPVLDSDGSFFLTSKLTVDKSRWQQGNVFSCSVMHEALHNHYTQKSLCLSPGK
# modifications: here or on the partner: MC-vc-PAB-MMAE on Cys of S239C and S442C (EU numbering)
# B3: D10 E10-hFc (S239/442C T366Y/Y407T), [G4S]1 linker, MC-vc-PAB-MMAE conjugate, #678 (Fc fusion, DAR 4)
# chain 1: B1 chain 1
# chain 2: B2 chain 2 with A24V, F29L, G30S, R51K, D73E, N74D, N84S, V104A
# modifications: here or on the partner: MC-vc-PAB-MMAE on Cys of S239C and S442C (EU numbering)
# B4: A06 F05-hFc (S239/442C T366Y/Y407T), [G4S]1 linker, MC-vc-PAB-MMAE conjugate, #712 (Fc fusion, DAR 4)
# chain 1: QVHLVESGGGLVQAGGSLRLSCAASGRTFLSMGWFRQAPGKEREFVAAISWTGGSTGYADSVKGRFTISRESDKETMYLQMNSLKPEDTAVYYCAARGDVYYGGDDATRYKYWGQGTQVTVSSGGGGSEPKSSDKTHTCPPCPAPELLGGPCVFLFPPKPKDTLMISRTPEVTCVVVDVSHEDPEVKFNWYVDGVEVHNAKTKPREEQYNSTYRVVSVLTVLHQDWLNGKEYKCKVSNKALPAPIEKTISKAKGQPREPQVYTLPPSRDELTKNQVSLYCLVKGFYPSDIAVEWESNGQPENNYKTTPPVLDSDGSFFLYSKLTVDKSRWQQGNVFSCSVMHEALHNHYTQKSLCLSPGK
# chain 2: B2 chain 2
# modifications: here or on the partner: MC-vc-PAB-MMAE on Cys of S239C and S442C (EU numbering)
# B5: D10 A06-hFc (S239/442C T366Y/Y407T), [G4S]3 linker, MC-vc-PAB-MMAE conjugate, #633 (Fc fusion, DAR 4)
# chain 1: QVQLVESGGGLVQPGGSLRLSCAASGSIFSVNTMGWYRQAPGKQRDLVAVATSGGTIHYADSVKGRFTISRDNAKNTVYLQMNSLKPEDTAVYYCNLVVPYGMIAGDHDYWGQGTKVTVSSGGGGSGGGGSGGGGSEPKSSDKTHTCPPCPAPELLGGPCVFLFPPKPKDTLMISRTPEVTCVVVDVSHEDPEVKFNWYVDGVEVHNAKTKPREEQYNSTYRVVSVLTVLHQDWLNGKEYKCKVSNKALPAPIEKTISKAKGQPREPQVYTLPPSRDELTKNQVSLYCLVKGFYPSDIAVEWESNGQPENNYKTTPPVLDSDGSFFLYSKLTVDKSRWQQGNVFSCSVMHEALHNHYTQKSLCLSPGK
# chain 2: QVHLVESGGGLVQAGGSLRLSCAASGRTFLSMGWFRQAPGKEREFVAAISWTGGSTGYADSVKGRFTISRESDKETMYLQMNSLKPEDTAVYYCAARGDVYYGGDDATRYKYWGQGTQVTVSSGGGGSGGGGSGGGGSEPKSSDKTHTCPPCPAPELLGGPCVFLFPPKPKDTLMISRTPEVTCVVVDVSHEDPEVKFNWYVDGVEVHNAKTKPREEQYNSTYRVVSVLTVLHQDWLNGKEYKCKVSNKALPAPIEKTISKAKGQPREPQVYTLPPSRDELTKNQVSLTCLVKGFYPSDIAVEWESNGQPENNYKTTPPVLDSDGSFFLTSKLTVDKSRWQQGNVFSCSVMHEALHNHYTQKSLCLSPGK
# modifications: here or on the partner: MC-vc-PAB-MMAE on Cys of S239C and S442C (EU numbering)
# B6: D10 E10-hFc (S239/442C T366Y/Y407T), [G4S]3 linker, MC-vc-PAB-MMAE conjugate, #636 (Fc fusion, DAR 4)
# chain 1: B5 chain 1
# chain 2: QVQLVESGGGLVQAGGSLRLSCAVSGRALSDYNIGWFRQAPGKEREFVARKTWDGSSTRYDDSVKGRFTVSIEDAKNTAYLQMSSLKTEDTAVYYCAAGRYSRARGWEYDYWGQGTQVTVSSGGGGSGGGGSGGGGSEPKSSDKTHTCPPCPAPELLGGPCVFLFPPKPKDTLMISRTPEVTCVVVDVSHEDPEVKFNWYVDGVEVHNAKTKPREEQYNSTYRVVSVLTVLHQDWLNGKEYKCKVSNKALPAPIEKTISKAKGQPREPQVYTLPPSRDELTKNQVSLTCLVKGFYPSDIAVEWESNGQPENNYKTTPPVLDSDGSFFLTSKLTVDKSRWQQGNVFSCSVMHEALHNHYTQKSLCLSPGK
# modifications: here or on the partner: MC-vc-PAB-MMAE on Cys of S239C and S442C (EU numbering)
# B7: D10 F05-hFc (S239/442C T366Y/Y407T), [G4S]3 linker, MC-vc-PAB-MMAE conjugate, #637 (Fc fusion, DAR 4)
# chain 1: B5 chain 1
# chain 2: B6 chain 2 with V24A, L29F, S30G, K51R, E73D, D74N, S84N, A104V
# modifications: here or on the partner: MC-vc-PAB-MMAE on Cys of S239C and S442C (EU numbering)
# B8: D10 E06-hFc (S239/442C T366Y/Y407T), [G4S]3 linker, MC-vc-PAB-MMAE conjugate, #634 (Fc fusion, DAR 4)
# chain 1: B5 chain 1
# chain 2: QVHLVESGGGLVQAGGSLRLSCAASRRSFSEYAMGWFRQAPGKEREFVAAIGWSGVIEYADSVKGRFTISRDNAKDTVYLQMNSLKPEDTAVYYCAAGLGIRVVSQTPAYWGQGTQVTVSSGGGGSGGGGSGGGGSEPKSSDKTHTCPPCPAPELLGGPCVFLFPPKPKDTLMISRTPEVTCVVVDVSHEDPEVKFNWYVDGVEVHNAKTKPREEQYNSTYRVVSVLTVLHQDWLNGKEYKCKVSNKALPAPIEKTISKAKGQPREPQVYTLPPSRDELTKNQVSLTCLVKGFYPSDIAVEWESNGQPENNYKTTPPVLDSDGSFFLTSKLTVDKSRWQQGNVFSCSVMHEALHNHYTQKSLCLSPGK
# modifications: here or on the partner: MC-vc-PAB-MMAE on Cys of S239C and S442C (EU numbering)
# B9: A06 E10-hFc (S239/442C T366Y/Y407T), [G4S]3 linker, MC-vc-PAB-MMAE conjugate, #664 (Fc fusion, DAR 4)
# chain 1: B5 chain 2 with T289Y, T330Y
# chain 2: B6 chain 2
# modifications: here or on the partner: MC-vc-PAB-MMAE on Cys of S239C and S442C (EU numbering)
# B10: A06 F05-hFc (S239/442C T366Y/Y407T), [G4S]3 linker, MC-vc-PAB-MMAE conjugate, #665 (Fc fusion, DAR 4)
# chain 1: B5 chain 2 with T289Y, T330Y
# chain 2: B6 chain 2 with V24A, L29F, S30G, K51R, E73D, D74N, S84N, A104V
# modifications: here or on the partner: MC-vc-PAB-MMAE on Cys of S239C and S442C (EU numbering)
# B11: A06 E06-hFc (S239/442C T366Y/Y407T), [G4S]3 linker, MC-vc-PAB-MMAE conjugate, #639 (Fc fusion, DAR 4)
# chain 1: B5 chain 2 with T289Y, T330Y
# chain 2: B8 chain 2
# modifications: here or on the partner: MC-vc-PAB-MMAE on Cys of S239C and S442C (EU numbering)
# Target: ALPP/ALPPL2 on ALPP/ALPPL2 positive cancer cells (MKN1, NCI-H1651, NCI-N87, Caov-3, HPAC)
# Assay: cell-based or functional assay
Binder,"% viability remaining at 96 h, MKN1 cells","% viability remaining at 96 h, NCI-H1651 cells","% viability remaining at 96 h, NCI-N87 cells","IC50 at 96 h, cell-killing of MKN1 cells","IC50 at 96 h, cell-killing of NCI-H1651 cells","IC50 at 96 h, cell-killing of NCI-N87 cells"
B1,5.3%,28.9%,25.5%,31.8 nM,1.3 nM,0.6 nM
B2,25.2%,31.2%,21.8%,9.7 nM,0.8 nM,0.6 nM
B3,24.5%,31%,23.6%,8.1 nM,0.6 nM,0.5 nM
B4,27.1%,31.3%,20.7%,45.9 nM,0.9 nM,0.7 nM
B5,27.9%,25.4%,27.3%,1.4 nM,5.4 nM,4.9 nM
B6,30%,28.9%,26.2%,1.9 nM,0.9 nM,2.1 nM
B7,28.1%,28%,28.9%,1.3 nM,1.2 nM,5.1 nM
B8,31.1%,28.5%,27.6%,2.6 nM,1.1 nM,2.4 nM
B9,29.7%,27.2%,28.7%,0.9 nM,0.6 nM,4.7 nM
B10,31.6%,25%,27%,0.7 nM,0.4 nM,5.8 nM
B11,30.6%,28%,27.8%,2.3 nM,0.9 nM,12.9 nM
